Source: PMC10118082 (PLOS ONE, 2023)
“And” between values parts separate entries of the source, which are not always exact repeats. Equal values may be shown once.

Assays:
[1] = target: T1, human complement component 5 (C5) (Homo sapiens, UniProt P01031); assay: cell-based or functional assay
[2] = target: T1, human complement component 5 (C5); assay: SEC-MALS; antibody (700 nM) plus C5 (400 nM) incubated about 30 min at room temperature in PBS; Bio SEC-5 1000 A column run in PBS; no eculizumab; conditions: both partners purified

stoichiometry N [2]: 1 C5 per TPP-2799 and 2 C5 per TPP-2799
B1: mAb TPP-2799 (antibody, V domains shown)
VH: QVQLVESGGGLVQPGRSLRLSCAASGFTVHSSYYMAWVRQAPGKGLEWVGAIFTGSGAEYKAEWAKGRVTISKDTSKNQVVLTMTNMDPVDTATYYCASDAGYDYPTHAMHYWGQGTLVTVSS
VL: DIQMTQSPSSLSASVGDRVTITCRASQGISSSLAWYQQKPGKAPKLLIYGASETESGVPSRFSGSGSGTDFTLTISSLQPEDFATYYCQNTKVGSSYGNTFGGGTKVEIK
notes: heavy chain of Chugai mAb RO7112689 (crovalimab) as described in CAS Registry Number 1917321-26-6; light chain of Chugai mAb RO7112689 (crovalimab) as described in CAS Registry Number 1917321-26-6; MALS mass alone 154 kDa; also called RO7112689; source: Expi293, transiently expressed, purified (MabSelect SuRe); copies: 2 + 2
IC50 of inhibition of classical-pathway hemolysis of antibody-sensitized chicken red blood cells in 20% (v/v) human serum [1]: 30 nM
